Biological target: T1, cleaved Ebola virus (EBOV) glycoprotein GPCL (Ebola virus (Zaire ebolavirus), UniProt Q05320)
T1 construct: copies: 3 + 3
Assay: crystal structure
Conditions: both partners purified

B1: ADI-15878 fragment antigen binding (Fab) (Fab, V domains shown)
VH: QVQLVQSGVTLVQPGGSLRVSCAASGFTFSSYAMSWVRQAPGKGLEWVSAISGLGGSTYYADSVKGRFTISRDNSKNTLYLQMNSLRAEDTAVYYCAKDHRVWAAGYHFDYWGQGALVTVSS
VL: DIVLTQSPSTLSASVGDRVTITCRASQSISSWLAWYQQKPGEAPKLLISDASSLESGVPSRFSGSGSGTEFTLTISSLQPDDFATYYCQQYYSSPTFGGGTKVEIK
notes: also called ADI-15878 Fab
B1: binds.

From PMC6134094 (mBio, 2018)
